As a reminder, the Kd is the equilibrium constant for the complex coming apart. In general, koff refers to the first-order rate constant of dissociation. Higher therefore signals fast dissociation. By kon is commonly meant a measure of how fast the partners come together. Low values mean slow association, high ones fast association. The EC50 is the concentration at which the effect is half-maximal. Higher therefore signals a need for much substance.

From US20190359723A1 come the findings set out here.

Assay [1] concerns the target IL-13RA2 huFc (human). Nature of the assay: SPR (Biacore T200), scFv_Fc forms on IL-13RA2 huFc, summary table. Background: Surface plasmon resonance follows binding to a sensor surface in real time, without labels.
Assay [2] concerns the target T1, IL-13RA2 endogenously expressed on U251 cells (human) (UniProt Q14627).
T1 sequence (looked up): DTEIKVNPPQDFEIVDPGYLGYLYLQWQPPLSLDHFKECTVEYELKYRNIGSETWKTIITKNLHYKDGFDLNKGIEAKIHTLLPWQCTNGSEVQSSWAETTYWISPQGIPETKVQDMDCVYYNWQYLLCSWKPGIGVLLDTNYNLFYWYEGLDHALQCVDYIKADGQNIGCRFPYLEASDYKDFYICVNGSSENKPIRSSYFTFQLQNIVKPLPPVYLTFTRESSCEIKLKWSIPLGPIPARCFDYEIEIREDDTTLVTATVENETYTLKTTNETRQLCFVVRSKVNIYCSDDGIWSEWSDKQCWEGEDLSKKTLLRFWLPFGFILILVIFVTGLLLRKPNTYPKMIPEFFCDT
Nature of the assay: flow cytometry on U251 cells, scFv_Fc form, 5-fold dilutions from 2,000 nM, FITC anti-human IgG. Background: A flow cytometer gives signals particle by particle.

Assay [3] addresses IL-13RA2 huFc (human). Nature of the assay: SPR (Biacore T200), ligand IL13Ra2 on the chip, scFv_Fc as analyte at 6.25 to 100 nM, 1:1 binding fit, flow 30 ul/min.

B1: 2D3 (scFv_Fc form) (Fc fusion, not shown: a dimerising Fc or GST)
scFv: EVQLLESGGGLVQPGGSLRLSCAASGFTFRRPAMTWVRQAPGKGLEWVSAITGSGGSTYYADSVKGRFTISRDNSKNTLYLQMNSLRAEDTAVYYCVKVRYGWGAGAFDYWGQGTLVTVSSGGGGSGGGGSGGGGSDIQMTQSPSTLSASVGDRVTITCRASQSISSWLAWYQQKPGKAPKLLIYDASSLESGVPSRFSGSGSGTEFTLTISSLQPDDFATYYCQQYDTYPPITFGQGTKVEIK
In assay [1], B1 returned a Kd of 0.348 nM, a koff of 0.000196 s⁻¹ and a kon of 563000 M⁻¹ s⁻¹. The same molecule came in with an EC50 in assay [2] of 0.33 nM. In addition, in assay [3], the Kd was found to be 0.348 nM, the koff came out at 0.000196 s⁻¹ and the kon turned out to be 563000 M⁻¹ s⁻¹.
